Values quoted from earlier work in patent US10543185B2, “Method for treating idiopathic pulmonary fibrosis” (The University of Chicago, priority 2015, dated 2020).

Test system: patients with idiopathic pulmonary fibrosis (IPF)
Details: trial stopped early; cited from earlier work

B1: interferon gamma-1b: study drug of the INSPIRE randomized clinical trial, compared to placebo (protein, UniProt P01579 24-161, looked up)
Interferon gamma: QDPYVKEAENLKKYFNAGHSDVADNGTLFLGILKNWKEESDRKIMQSQIVSFYFKLFKNFKDDQSIQKSVETIKEDMNVKFFNSNKKKRDDFEKLTNYSVTDLNVQRKAIHELIQVMAELSPAAKTGKRKRSQMLFRG
modifications: interferon gamma-1b
notes: study drug of the INSPIRE randomized clinical trial, compared to placebo
- Benefit compared to placebo at interim analysis: no benefit
